Experimental data reported in the MegaScale stability set (Tsuboyama et al. 2023).

B1: 2K2A (parent)
chain: ELREAFRLYDKEGNGYISTDVMREILAELDETLSSEDLDAMIDEIDADGSGTVDFEEFMGVMT

Variants of: B1
Experiment: folding stability dG (cDNA display proteolysis); higher = more stable
Conditions: PBS, room temperature

Variant	folding stability dG [kcal/mol]
D10H	-0.087
E4D	2
E4I	1.43
E4Q	1.46
E4P	0.889
E4S	1.24
E4F	1.32
E31Y	2.01
E31Q	2.2
E31I	1.93
E31S	2.28
E31K	2.34
E31W	1.98
E31C	1.92
E31G	2.17
I45T	0.714
I45M	1.93
I45S	0.36
I45L	1.74
S35G	1.78
S35F	1.48
S35K	2.14
S35D	1.92
S35V	1.77

Variant	folding stability dG [kcal/mol]
S35L	1.69
D48G	1.37
D48P	0.465
D48K	1.57
D48H	1.51
D48W	1.24
A5E	1.21
A5F	2.74
A5T	2.14
A5C	3.22
A5V	2.6
A5Y	2.59
D39G	0.971
D39V	0.996
D39R	1.41
D39C	1.16
D39F	1.15
D39E	1.4
D39W	1.22
S18A	1.42
S18L	1.41
S18Y	1.32
Y16R	1.15
Y16A	0.729

Variant	folding stability dG [kcal/mol]
Y16S	1.03
Y16M	0.8
Y16V	1.1
S34W	0.76
S34R	1.47
S34G	1.26
S34Q	1.18
S34F	0.67
S34M	1.27
M62E	-0.063
M62Q	0.539
I17F	0.818
I17W	0.006
I17S	-0.963
T19N	1.73
T19E	0.025
T19P	0.762
T19F	2.18
T19H	1.01
T19V	2.04
A40D	1.4
A40L	1.85
A40W	1.6
A40M	1.76

Variant	folding stability dG [kcal/mol]
A40G	1.34
A40Y	1.71
A40P	-0.715
A40T	1.57
A40H	2.19
E12L	1.55
E12C	1.61
E12Q	1.56
E12K	1.13
F58V	0.336
F58W	1.69
F58Y	1.6
F58C	0.529
L2T	0.594
L2P	0.726
L2S	0.529
L2M	1.74
V21M	2.06
V21W	1.09
V21D	1.95
V21A	2.17
V21G	0.967
V21N	1.74
G49A	1.5

Variant	folding stability dG [kcal/mol]
G49M	1.43
G49S	1.63
G49R	1.95
I25V	1.31
I25F	1.53
G15L	0.841
G15I	0.513
G15M	0.662
G15E	0.488
G15S	0.464
G15R	0.333
G15F	0.687
M22H	-0.985
M22F	1.65
M22T	0.155
M22I	1.46
K11W	1.88
K11P	1.81
K11I	2.01
K11V	2.1
E44T	1.93
E44P	0.7
E44W	2.19
E44R	2.16

Variant	folding stability dG [kcal/mol]
E44N	1.95
V53H	0.004
V53L	1.58
V53R	-0.087
V53T	-0.067
V53G	-0.308
V53F	1.07
L8S	1.92
L8Q	2.05
L8N	1.85
L8T	1.94
L8E	1.52
L8I	1.8
E24G	2.08
E24C	2.6
E24R	2.58
F55C	0.683
F55A	0.686
F55T	0.148
F55Q	0.578
F55K	0.132
F55N	-0.55
F55G	-0.263
L26C	0.479

Variant	folding stability dG [kcal/mol]
L26R	-0.879
E36K	1.81
E36T	1.82
E36I	1.53
E36W	1.87
E36H	1.65
E36M	1.7
E36S	1.88
E36D	1.89
R23K	1.69
R23T	-0.478
R23Y	0.595
R23S	-0.561
R23M	0.457
D37G	1.15
D37V	1.66
D37E	2.08
D37I	1.65
T52L	1.65
T52V	1.55
T52M	1.74
T52K	1.74
T52Q	1.68
